Columns and labels:
cathepsin B = cathepsin B (Homo sapiens, UniProt P07858); assay: Digestion of vc payloads with protease cathepsin B, RP-HPLC; format: biochemical; settings: cathepsin B 1:1000 for each vc moiety
Protocol: Prior to the conjugation with the antibody, payloads 2 and 3 have been analyzed for their susceptibility to cleavage by the protease cathepsin B (FIGS. 5A-5C).
FIGS. 5A-5C show in FIG. 5A an RP-HPLC analysis of the valine-citrulline (vc) containing payload 2 during digestion reaction with the protease cathepsin B (1:1000 for each vc moiety). Prior to analysis the reaction was stopped with E-64. The chromatogram after a reaction time of 150 min was recorded at 220 nm. […] During the reaction of payload 3 with cathepsin B an intermediate is formed (grey, triangle) which contains one MMAE moiety.

[1] = Storage of ADCs in mouse-plasma for 7 days at 37° C.; format: in vitro ADME; settings: for DARav after plasma incubation n = 2 / Payload lost: mouse-plasma, 7 days at 37° C.
[2] = Repeated dose toxicity and toxicokinetics study in rats; format: in vivo, Sprague Dawley rats; settings: for Glucose level: one ADC compared to the other
Protocol: Experiments were performed in accordance with animal welfare law and approved by local authorities. […] Clinical observations, body weight and food consumption were determined daily throughout the study. Pharmacokinetic samples were obtained prior to each dose, 15 minutes post each dose and at necropsy from each animal. All animals were necropsied, with organs weighed and retained in fixative. Clinical pathology (hematology, clinical chemistry and coagulation end-points) samples were also taken at necropsy.
Clinical observations, body weight and food consumption were determined daily throughout the study. Pharmacokinetic samples were obtained prior to each dose, 15 minutes post each dose and at necropsy from each animal. All animals were necropsied, with organs weighed and retained in fixative. Clinical pathology (hematology, clinical chemistry, and coagulation endpoints) samples were also taken at necropsy.
As reference, rats were dosed with a control (vehicle) (data not shown).

[3] = Repeated dose toxicity and toxicokinetic study in cynomolgus monkey; format: in vivo
Protocol: Clinical condition (incl. bodyweight, food consumption & clinical observations), clinical pathology and immunophenotyping (T, B and NK cells) was evaluated throughout the study, with frequent sampling for TK and anti-drug antibody determination. All animals were subject to full necropsy with detailed macroscopic observations.
Bodyweight is depicted in kilogram, lymphocytes in billion per liter, neutrophiles in billion per liter and white blood cells in billion per liter.

[4] = cynomolgus monkey, cited from earlier work
[5] = cynomolgus monkey, 6, 12 and 15 mg/kg
[6] = cynomolgus monkey, 6, 12 and 15 mg/kg repeated dose
[7] = rat, 10 mg/kg weekly, compared to the Brentuximab Tub-tag ADC

For `CC[C@H](C)[C@H]([C@H](CC(=O)N1CCC[C@@H]1[C@@H](OC)[C@H](C)C(=O)N[C@@H](C)[C@H](O)c1ccccc1)OC)N(C)C(=O)[C@H](NC(O)[C@@H](C(C)C)N(C)C(=O)OCc1ccc(NC(=O)[C@@H](CCCNC(N)=O)NC(=O)[C@H](NC(=O)CON)C(C)C)cc1)C(C)C` (stereo partly shown) [payload 2, HA-VC-PAB-MMAE], the “susceptibility to cleavage by cathepsin B, release of free MMAE” value (cathepsin B) was “cleaved by cathepsin B”.
In the case of “Bren. HC-2: Brentuximab with Tub-tag on heavy chains (SEQ ID NO: 2/12), 3-formyl-L-tyrosine, oxime-linked Payload 2 (vc-PAB-MMAE), DAR 2”, the “DAR before plasma incubation” value [1] is reported as 2, the “DARav after plasma incubation n = 2” value [1] is reported as 1.8 and the Payload lost [1] is reported as 10%.
With “Bren. LC-2: Brentuximab with Tub-tag on light chains (SEQ ID NO: 11/1), 3-formyl-L-tyrosine, oxime-linked Payload 2 (vc-PAB-MMAE), DAR 2” the “DAR before plasma incubation” value [1] was 2, the “DARav after plasma incubation n = 2” value [1] was 1.8 and the Payload lost [1] was 10%. The “overall safety profile in the rat” value ([2]; 10 mg/kg weekly) was “better safety profile compared to Brentuximab vedotin”, the “serum concentrations after repeated doses” value ([2]; rat, 10 mg/kg i.v. at day 1, 8, 15 and 22) was “reasonable levels of serum concentrations” and the Hematocrit ([2]; rat, 10 mg/kg weekly) was “no marked effect”. The Hemoglobin levels ([2]; rat, 10 mg/kg weekly) was “no marked effect”, the “MMAE driven testes changes” value ([2]; rat, 10 mg/kg weekly) was “delayed in onset” and the “Red blood cell count” value ([2]; rat, 10 mg/kg weekly) was “no marked effect”. The Reticulocytes count ([2]; rat, 10 mg/kg weekly) was “no effect”, the “impact on red blood cell populations” value ([2]; rat, 10 mg/kg weekly) was “no impact on red blood cell populations” and the Glucose level ([2]; rat, 10 mg/kg weekly) was “lower glucose levels”. The “lymphocytes concentration and white blood cells concentration” value [3, 5] was “No significant changes”, the “reduction in neutrophiles in comparison to Brentuximab vedotin (3 mg/kg)” value [3, 5] was “does not cause a higher amount of reduction in neutrophiles” and the clinical tolerability [3, 6] was “clinically well tolerated”. For the same molecule, the “mortality, macroscopic and microscopic findings” value [3, 6] was “no mortality and no macroscopic or sever microscopic findings” and the “reductions in red blood cells, hemoglobin and neutrophils” value ([3]; cynomolgus monkey, at 12 & 15 mg/kg) was “relatively consistent to those observed with Adcetris at 3 mg/kg”.
With “Brentuximab vedotin: approved CD30 ADC: chimeric IgG1 brentuximab, Cathepsin B cleavable Valin-Citrulline linker, Monomethyl-Auristatin E; maleimide-linked, DARav 4” the “DAR before plasma incubation” value [1] was 4.02, the “DARav after plasma incubation n = 2” value [1] was 1.53 and the Payload lost [1] was 62%. The “tolerability at 6 mg/kg” value ([4]; 6 mg/kg) was “poorly tolerated”, the MTD [4] was 3 mg/kg and the Hematocrit ([2]; rat, 10 mg/kg weekly) was “reduces hematocrit (mainly in males)”. The Hemoglobin levels ([2]; rat, 10 mg/kg weekly) was “reduces hemoglobin levels (mainly in males)”, the “MMAE driven testes changes” value ([2]; rat, 10 mg/kg weekly) was “testes changes were observed” and the “Red blood cell count” value ([2]; rat, 10 mg/kg weekly) was “marked impact”. The Reticulocytes count ([2]; rat, 10 mg/kg weekly) was “marked impact”, the APTT [2, 7] was “lower APTT values” and the Eosinophils counts [2, 7] was “lower eosinophils counts”. For the same molecule, the Testis weight [2, 7] was “lower testis weight”, the Thymus weight [2, 7] was “lower thymus weight” and the Glucose level ([2]; rat, 10 mg/kg weekly) was “greater level of glucose”.
For HA-(VC-PAB-MMAE)2 [payload 3], the “susceptibility to cleavage by cathepsin B, release of free MMAE” value (cathepsin B) was “cleaved by cathepsin B”.
